# Test results from the supplement of paper PMC7877785.
# ± gives the uncertainty stated by the source.
# Test: self-splicing fitness, log relative to wild type (ln ratio); higher = more splicing; Tetrahymena group I intron in knt gene, E. coli kanamycin selection, DiMSum; sequences stand for … in CUCUCU…GGAGGGAAAAGUUAUCAGGCAUGCACCUGGUAGCUAGUCUUUAAACCAAUAGAUUGCAUCGGUUUAAAAGGCAAGACCGUCAAAUUGCGGGAAAGGGGUCAACAGCCGUUCAGUACCAAGUCUCAGGGGAAACUUUGAGAUGGCCUUGCAAAGGGUAUGGUAAUAAGCUGACGGACAUGGUCCUAACCACGCAGCCAAGUCCUAAGUCAACAGAUCUUCUGUUGAUAUGGAUGCAGUUCACAGACUAAAUGUCGGUCGGGGAAGAUGUAUUCUUCUCAUAAGAUAUAGUCGGACCUCUCCUUAAUGGGAGCUAGCGGAUGAAGUGAUGCAACACUGGAGCCGCUGGGAACUAAUUUGUAUGCGAAAGUAUAUUGAUUAGUUUUGGAGUACUCGUGGUCG
# Procedure, shortened: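 Pooled colonies went to amplicon sequencing on an Illumina HiSeq 2500 after six replicate transformations. The plates were LB agar with 100 μg/mL carbenicillin, 50 μM IPTG and 0.2% rhamnose, with or without 25 μg/mL kanamycin, incubated overnight at 37°C or 30°C. The E. coli BL21(DE3) library had all eight P1ex-region intron nucleotides randomised, the intron placed in the knt kanamycin-resistance gene on pET-22b(+). DiMSum fitness is the error-weighted combination of replicate fold changes, kanamycin against none, normalised to wild type.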
Sequence,self-splicing fitness (ln) (30 °C),self-splicing fitness (ln) (37 °C)
GGAAAGCAAUAUUACGGUUA,-1.33 ± 0.11,-0.365 ± 0.099
GGAAAGCAAUAUUACGUACU,-1.25 ± 0.082,-0.834 ± 0.13
GGAAAGCAAUAUUACGUCAG,-3.08 ± 0.38,-2.25 ± 0.27
GGAAAGCAAUAUUACGUCUC,-3.22 ± 0.41,–
GGAAAGCAAUAUUACGUGCG,-0.344 ± 0.11,-0.596 ± 0.12
GGAAAGCAAUAUUACGUGUA,-1.92 ± 0.096,-1.8 ± 0.13
GGAAAGCAAUAUUACGUGUC,-3.94 ± 0.31,-1.91 ± 0.19
GGACAGCAAUAUUACGAAAA,-1.42 ± 0.19,-1.36 ± 0.15
GGACAGCAAUAUUACGAAUC,-0.0402 ± 0.12,0.32 ± 0.17
GGACAGCAAUAUUACGACAA,-1.7 ± 0.21,-0.0889 ± 0.12
GGACAGCAAUAUUACGACAG,-3.31 ± 0.21,-2.33 ± 0.27
GGACAGCAAUAUUACGAGUU,-3.64 ± 0.19,-1.24 ± 0.11
GGACAGCAAUAUUACGAUCG,-0.492 ± 0.099,0.519 ± 0.11
GGACAGCAAUAUUACGCAAU,-0.155 ± 0.13,0.311 ± 0.11
GGACAGCAAUAUUACGCUCC,–,-1.24 ± 0.46
GGACAGCAAUAUUACGCUUA,-0.319 ± 0.08,0.1 ± 0.1
GGACAGCAAUAUUACGGACA,-0.509 ± 0.11,-0.307 ± 0.11
GGACAGCAAUAUUACGGACU,-1.01 ± 0.079,-0.461 ± 0.09
GGACAGCAAUAUUACGGCAU,-0.228 ± 0.053,0.0818 ± 0.068
GGACAGCAAUAUUACGGCGG,-2.64 ± 0.13,-1.52 ± 0.13
GGACAGCAAUAUUACGGGUG,-2.51 ± 0.097,-1.64 ± 0.1
GGACAGCAAUAUUACGUAUG,-1.13 ± 0.073,-0.419 ± 0.08
GGACAGCAAUAUUACGUCCG,-2.1 ± 0.12,-1.89 ± 0.18

Sequence,self-splicing fitness (ln) (30 °C),self-splicing fitness (ln) (37 °C)
GGACAGCAAUAUUACGUCUC,-4.03 ± 0.18,-2.57 ± 0.2
GGACAGCAAUAUUACGUGGU,-2.9 ± 0.12,-1.08 ± 0.11
GGACAGCAAUAUUACGUGUU,-3.42 ± 0.13,-2.44 ± 0.2
GGACAGCAAUAUUACGUUUA,-0.44 ± 0.059,0.258 ± 0.077
GGAGAGCAAUAUUACGACUC,-1.21 ± 0.23,-0.0732 ± 0.34
GGAGAGCAAUAUUACGACUG,–,-1.15 ± 0.27
GGAGAGCAAUAUUACGAGCC,-2.64 ± 0.49,–
GGAGAGCAAUAUUACGAGCG,–,-1.86 ± 0.37
GGAGAGCAAUAUUACGAUAG,–,-1.94 ± 0.28
GGAGAGCAAUAUUACGAUCA,-1.04 ± 0.16,-1.73 ± 0.25
GGAGAGCAAUAUUACGCAAU,-3.02 ± 0.2,-2.55 ± 0.31
GGAGAGCAAUAUUACGCGUG,-3.84 ± 0.33,-2.53 ± 0.18
GGAGAGCAAUAUUACGCUCC,–,-1.68 ± 0.45
GGAGAGCAAUAUUACGCUCG,-2.7 ± 0.24,-2.45 ± 0.19
GGAGAGCAAUAUUACGCUUA,-2.12 ± 0.14,-0.41 ± 0.14
GGAGAGCAAUAUUACGGAGU,–,-2.68 ± 0.31
GGAGAGCAAUAUUACGGCAA,-2.75 ± 0.47,-1.59 ± 0.43
GGAGAGCAAUAUUACGGUUG,-2.38 ± 0.22,-2.05 ± 0.38
GGAGAGCAAUAUUACGUCGG,-4.62 ± 0.39,-3.75 ± 0.3
GGAGAGCAAUAUUACGUCUA,-1.23 ± 0.13,-1.4 ± 0.1
GGAGAGCAAUAUUACGUGAG,-3.33 ± 0.23,-1.56 ± 0.2
GGAGAGCAAUAUUACGUGCC,–,-2.38 ± 0.42
